Experimental findings from patent US20230052369A1 (Zymeworks, published 2023) are described below.

Positions count from the first letter of the chain named.

First the molecules themselves.
T1: Cyno 4-1BB-Flag, on HEK293-6e cells (Cynomolgus (Macaca fascicularis))
T1 construct: also called Cynomolgus 4-1BB; CL#11070
T1 chain: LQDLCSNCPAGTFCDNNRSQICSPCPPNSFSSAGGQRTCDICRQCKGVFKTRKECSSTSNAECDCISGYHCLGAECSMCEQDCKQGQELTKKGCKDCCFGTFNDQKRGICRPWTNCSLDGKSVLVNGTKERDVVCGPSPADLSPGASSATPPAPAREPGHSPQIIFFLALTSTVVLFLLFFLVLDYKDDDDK

B1: v28695 (antibody, human IgG1, kappa, L234A L235A, V domains shown)
VH: QVQLQESGPGLVKPSETLSLTCTVSGFSLISYGVHWIRQPPGKGLEWIGVIWSGGSTDYNPSLKSRVTISVDTSKNQFSLKLSSVTAADTAVYYCARNPLTATVMDYWGQGTLVTVSS
VL: DIQMTQSPSSLSASVGDRVTITCRASQNVGTNVAWFQQKPGKAPKSLIYSASYRDSGVPSRFSGSGSGTDFTLTISSLQPEDFATYYCQQYNSYPLTFGGGTKVEIKR
notes: also called humanized 5G8 H1L1
B2: v28725 (antibody, human IgG1, kappa, L234A L235A, V domains shown)
VH: EVQLVESGGGLIQPGGSLRLSCAVSGFSLTTYAISWVRQAPGKGLEWLGIIWPGGGTNYADSVKGRFTISKDNSKNTLYLQMNSLRAEDTAVYYCARGAGTWYFDVWGQGTLVTVSS
VL: DIQMTQSPSSLSASVGDRVTITCSASQGISNYLNWYQQKPGKAPKLLIYYTSSLHSGVPSRFSGSGSGTDYTLTISSLQPEDIATYYCQQYSKFPWTFGQGTKLEIKR
notes: also called humanized 1C8 H7L2
B3: v28722 (antibody, human IgG1, kappa, L234A L235A, V domains shown)
VH: B2 VH with K71R
VL: B2 VL
notes: also called humanized 1C8 H6L2
B4: v28721 (antibody, human IgG1, kappa, L234A L235A, V domains shown)
VH: B2 VH with K71R
VL: B2 VL with Y71F, L73F, L104V
notes: also called humanized 1C8 H6L1
B5: v28717 (antibody, human IgG1, kappa, L234A L235A, V domains shown)
VH: B2 VH with V24A, L48V, G49S, K71R
VL: B2 VL with Y71F, L73F, L104V
notes: FSA format, human IgG1/kappa; also called humanized 1C8 H5L1
B6: v28719 (antibody, human IgG1, kappa, L234A L235A, V domains shown)
VH: B2 VH with V24A, L48V, G49S, K71R
VL: B2 VL
notes: also called humanized 1C8 H5L2
B7: v28720 (antibody, human IgG1, kappa, L234A L235A, V domains shown)
VH: B2 VH with V24A, L48V, G49S, K71R
VL: B2 VL with A43T, P44V
notes: also called humanized 1C8 H5L3
B8: v28724 (antibody, human IgG1, kappa, L234A L235A, V domains shown)
VH: B2 VH
VL: B2 VL with Y71F, L73F, L104V
notes: also called humanized 1C8 H7L1
B9: v28723 (antibody, human IgG1, kappa, L234A L235A, V domains shown)
VH: B2 VH with K71R
VL: B2 VL with A43T, P44V
notes: also called humanized 1C8 H6L3
B10: v20027 (antibody, human IgG1, kappa, L234A L235A, V domains shown)
VH: QVQLQQPGAELVRPGASVKLSCKASGYTFTSYWINWVKQRPGQGLEWIGNIYPSDNYTNYNQKFKDKATLTVDKSSSTAYMQLSSPTSEDSAVYYCTRGGGIYYENYFDYWGQGTTLTVSS
VL: QIVLTQSPAIMSASPGEKVTMTCSASSSVSYMHWYQQKSGTSPKRWVYDTSKLASGVPARFSGSGSGTSYSLTISSMEAEDVATYYCQQWSSNPPTFGGGTKLEIKR
notes: Mouse-human chimera; also called 3D7
B11: v16601 (bispecific antibody)
VH: EVQLVQSGAEVKKPGESLRISCKGSGYSFSTYWISWVRQMPGKGLEWMGKIYPGDSYTNYSPSFQGQVTISADKSISTAYLQWSSLKASDTAMYYCARGYGIFDYWGQGTLVTVSS
VL: SYELTQPPSVSVSPGQTASITCSGDNIGDQYAHWYQQKPGQSPVLVIYQDKNRPSGIPERFSGSNSGNTATLTISGTQAMDEADYYCATYTGFGSLAVFGGGTKLTVL
scFv: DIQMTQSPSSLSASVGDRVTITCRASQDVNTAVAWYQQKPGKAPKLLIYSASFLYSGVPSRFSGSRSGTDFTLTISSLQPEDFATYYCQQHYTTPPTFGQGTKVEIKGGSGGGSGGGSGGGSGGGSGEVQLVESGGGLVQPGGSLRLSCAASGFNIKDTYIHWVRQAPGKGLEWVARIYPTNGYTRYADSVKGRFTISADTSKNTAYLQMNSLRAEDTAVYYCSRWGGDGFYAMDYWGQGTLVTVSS
B12: v16605 (bispecific antibody)
VH: B11 VH
VL: B11 VL
scFv: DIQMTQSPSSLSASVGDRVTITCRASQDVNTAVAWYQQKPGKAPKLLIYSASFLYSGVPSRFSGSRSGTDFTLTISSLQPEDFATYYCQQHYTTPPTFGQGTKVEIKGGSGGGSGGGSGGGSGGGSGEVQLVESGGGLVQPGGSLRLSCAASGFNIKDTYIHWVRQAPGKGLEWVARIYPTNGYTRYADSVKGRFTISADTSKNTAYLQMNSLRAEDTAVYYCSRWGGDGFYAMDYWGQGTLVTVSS
B13: v16675 (bispecific antibody, human IgG1, lambda, L234A L235A)
heavy 1: not shown
heavy 2: EVQLVQSGAEVKKPGESLRISCKGSGYSFSTYWISWVRQMPGKGLEWMGKIYPGDSYTNYSPSFQGQVTISADKSISTAYLQWSSLKASDTAMYYCARGYGIFDYWGQGTLVTVSSASTKGPSVFPLAPSSKSTSGGTAALGCLVKDYFPEPVTVSWNSGALTSGVHTFPAVLQSSGLYSLSSVVTVPSSSLGTQTYICNVNHKPSNTKVDKKVEPKSCDKTHTCPPCPAPELLGGPSVFLFPPKPKDTLMISRTPEVTCVVVDVSHEDPEVKFNWYVDGVEVHNAKTKPREEQYNSTYRVVSVLTVLHQDWLNGKEYKCKVSNKALPAPIEKTISKAKGQPREPQVYVYPPSRDELTKNQVSLTCLVKGFYPSDIAVEWESNGQPENNYKTTPPVLDSDGSFALVSKLTVDKSRWQQGNVFSCSVMHEALHNHYTQKSLSLSPG
light: SYELTQPPSVSVSPGQTASITCSGDNIGDQYAHWYQQKPGQSPVLVIYQDKNRPSGIPERFSGSNSGNTATLTISGTQAMDEADYYCATYTGFGSLAVFGGGTKLTVLGQPKAAPSVTLFPPSSEELQANKATLVCLISDFYPGAVTVAWKADSSPVKAGVETTTPSKQSNNKYAASSYLSLTPEQWKSHRSYSCQVTHEGSTVEKTVAPTECS
B14: v16679 (bispecific antibody, human IgG1, lambda, L234A L235A)
heavy 1: not shown
heavy 2: B13 heavy 2
light: B13 light
B15: v20020 (antibody, V domains shown)
VH: QVQLQQPGAELVKPGASVKLSCKASGYTFTSFWINWVKQRPGQGLEWIGNIYPDSSSTNYNEKFKNKATLTVDTSSSTAYMQLSSLTSDDSAVYFCARSLTFDYWGQGTTLTVSS
VL: DVVMTQTPLSLPVSLGDQASISCRSSQSIVHSNGNTYLEWYLQKPGQSPKLLIYKVSNRFSGVPDRFSARGSGTDFSLKISRVEAEDLGVYYCFQGSHVPYTFGGGTKLEIK
notes: Mouse-human chimera: mouse VH on human CH1-hinge-CH2-CH3 (IgG1), mouse VL on human kappa CL; also called 1B2
B16: v12592 (antibody, human IgG1, lambda)
heavy 1: EVQLVQSGAEVKKPGESLRISCKGSGYSFSTYWISWVRQMPGKGLEWMGKIYPGDSYTNYSPSFQGQVTISADKSISTAYLQWSSLKASDTAMYYCARGYGIFDYWGQGTLVTVSSASTKGPSVFPLAPCSRSTSESTAALGCLVKDYFPEPVTVSWNSGALTSGVHTFPAVLQSSGLYSLSSVVTVPSSNFGTQTYTCNVDHKPSNTKVDKTVEPKSCDKTHTCPPCPAPELLGGPSVFLFPPKPKDTLMISRTPEVTCVVVDVSHEDPEVKFNWYVDGVEVHNAKTKPREEQYNSTYRVVSVLTVLHQDWLNGKEYKCKVSNKALPAPIEKTISKAKGQPREPQVYVYPPSRDELTKNQVSLTCLVKGFYPSDIAVEWESNGQPENNYKTTPPVLDSDGSFALVSKLTVDKSRWQQGNVFSCSVMHEALHNHYTQKSLSLSPGK
heavy 2: not shown
light: B13 light with V135Y, L182I
notes: Control monospecific bivalent anti-4-1BB antibody, Het Fc; clones 2871, 4667, 2872; also called MOR7480.1-IG1; MOR7480.1

human 4-1BB, full-length, expressed on cells, sequence (Q07011 24-255): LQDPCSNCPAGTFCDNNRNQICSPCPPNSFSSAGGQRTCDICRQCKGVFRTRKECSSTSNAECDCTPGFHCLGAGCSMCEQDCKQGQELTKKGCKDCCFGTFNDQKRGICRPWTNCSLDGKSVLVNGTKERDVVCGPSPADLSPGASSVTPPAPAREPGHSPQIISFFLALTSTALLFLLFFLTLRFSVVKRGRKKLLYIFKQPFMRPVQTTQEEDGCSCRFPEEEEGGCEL
T2 sequence (Q07011 other isoform, or with tags, fused parts or gaps limits assumed): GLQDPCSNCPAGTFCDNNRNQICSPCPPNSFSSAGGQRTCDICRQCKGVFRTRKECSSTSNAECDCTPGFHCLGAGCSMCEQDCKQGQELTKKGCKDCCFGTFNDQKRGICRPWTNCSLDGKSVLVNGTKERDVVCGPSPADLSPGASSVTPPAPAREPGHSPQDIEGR
T4 sequence (P20334 other isoform, or with tags, fused parts or gaps limits assumed): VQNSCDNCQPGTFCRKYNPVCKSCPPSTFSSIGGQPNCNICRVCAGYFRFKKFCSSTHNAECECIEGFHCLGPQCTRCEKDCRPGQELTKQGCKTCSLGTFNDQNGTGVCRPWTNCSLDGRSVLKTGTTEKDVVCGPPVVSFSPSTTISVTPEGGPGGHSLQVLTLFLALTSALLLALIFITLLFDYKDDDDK

The first test concerns the target T2, purified human monomeric 4-1BB (human, UniProt Q07011 24-186).
T2 construct: the assay used the 4-1BB part released by Factor Xa with the Fc removed; also called h4-1BB; human 4-1BB
In words: SPR, Ab captured, monomeric 4-1BB injected. (In general: In SPR one partner is held on a chip, and binding of the other changes the refractive index at the surface.)
Regarding B1, the binding result is “no binding”.

As to B2, the binding result is recorded as “no binding”.

As to B3, the binding result is on record as “no binding”.

B4: the binding result is reported as “no binding”.

In the case of B5, the binding result was “no binding”.

In the case of B6, the binding result is “no binding”.

For B7, the binding result was “no binding”.

Take B8: the binding result is “no binding”.

In the case of B9, the binding result was “no binding”.

In a further test the target is T3, 4-1BB human (human 4-1BB ECD-TEV-IgG1 hinge-CH2-CH3-10x His) (human).
T3 construct: 4-1BB residues 24-186 fused to TEV site, IgG1 Fc and His tag; the entry is the whole fusion; also called soluble human 4-1BB-Fc
T3 sequence (chain, as listed by the source limits assumed): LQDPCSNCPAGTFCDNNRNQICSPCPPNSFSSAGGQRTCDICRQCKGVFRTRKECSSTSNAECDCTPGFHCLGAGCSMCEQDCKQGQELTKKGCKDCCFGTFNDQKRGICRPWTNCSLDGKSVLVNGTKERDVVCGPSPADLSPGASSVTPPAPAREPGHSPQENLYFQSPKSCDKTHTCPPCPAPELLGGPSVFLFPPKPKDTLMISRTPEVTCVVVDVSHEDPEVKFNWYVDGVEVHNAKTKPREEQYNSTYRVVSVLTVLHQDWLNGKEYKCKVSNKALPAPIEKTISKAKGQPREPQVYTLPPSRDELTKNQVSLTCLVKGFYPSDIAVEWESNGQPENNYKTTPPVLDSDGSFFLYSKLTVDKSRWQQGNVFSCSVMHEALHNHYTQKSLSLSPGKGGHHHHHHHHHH
In words: ELISA, coated 4-1BB-Fc.
Turning to B10, the binding result is listed as “no binding”.

Another test has as its target human 4-1BB, full-length, expressed on cells (human, UniProt Q07011 24-255). In words: cell-based or functional assay.
Turning to B11, the “EC50 (pM), 4-1BB NF-kB-luciferase Jurkat reporter in co-culture with SKOV3” value (“EC50 (pM)” for short) was 2620 pM and the “Max activity (RLU), 4-1BB NF-kB-luciferase Jurkat reporter” value (from here on “Max activity (RLU)”) was 27900 RLU.

In the case of B12, the “EC50 (pM)” value is 401 pM and the “Max activity (RLU)” value came to 92000 RLU.

Regarding B13, the “EC50 (pM)” value was determined as 56.9 pM and the “Max activity (RLU)” value amounted to 80900 RLU.

In the case of B14, the “EC50 (pM)” value was found to be 30.1 pM and the “Max activity (RLU)” value was 131000 RLU.

In the next test the target is T1, Cyno 4-1BB-Flag, on HEK293-6e cells. The test can be described thus: CellInsight cell binding, transfected HEK293-6e.
B15: the binding result is “no binding”.

For B16, the binding result is given as “binds”.

The next test addresses T4, Mouse 4-1BB-Flag, on HEK293-6e cells (Mouse (Mus musculus), UniProt P20334 24-208).
T4 construct: also called CL#11063
The test can be described thus: CellInsight cell binding, transfected HEK293-6e.
Regarding B15, the binding result is “no binding”.
